{"source": "the DeepSol protein solubility set", "data": [{"experiment": "soluble on expression in E. coli; label from the status in PepcDB or PDB records", "values": [{"sequence": "GSHMLTKQQIRYCLDEMAKMFPDAHCELVHRNPFELLIAVVLSAQCTDALVNKVTKRLFEKYRTPHDYIAVPLEELEQDIRSIGLYRNKARNIQKLCAMLIDKYNGEVPRDRDELMKLPGVGRKTANVVVSVAFGVPAIAVDTHVERVSKRLGFCRWDDSVLEVEKTLMKIIPKEEWSITHHRMIFFGRYHCKAQSPQCPSCPLLHLCREGKKRMRKREEKAANQK", "soluble on expression in E. coli": "soluble"}, {"sequence": "GPGSMFLNNNMVDDARTVQLLEEIDVQLERWGKKYGLDPSNEKQKRIPTAGGGDIKPSASSQRSHDVPNVKFVNDRTNSKVGIVETAAVAAPQGFDPSALFDRIDMLEKKLKVAEEERMILSERLFAAERIVVEVVNAQKGLQDEWAALSTQSFSISHLDDDRRTIVDSGKTSKRDCAFTSYTTQSRQSTQSGNSSVAGLSAFVSPAKEDTSRSCLQSPVRNAGSSGSVLGGEEEEDVVGATERRLFALDDLAQRLAV", "soluble on expression in E. coli": "not soluble"}, {"sequence": "LTFSLNFATSSKDSYGTGWLIDWKGDENKPSNTDPFLIYLATNLHVVDALRNPQDYEPYNKDSNGQDYGNRDITHFFALGKYTD", "soluble on expression in E. coli": "not soluble"}, {"sequence": "MTFSLFGDKFTRHSGITLLMEDLNDGLRTPGAIMLGGGNPAQIPEMQDYFQTLLTDMLESGKATDALCNYDGPQGKTELLTLLAGMLREKLGWDIEAQNIALTNGSQSAFFYLFNLFAGRRADGRVKKVLFPLAPEYIGYADAGLEEDLFVSARPNIELLPEGQFKYHVDFEHLHIGEETGMICVSRPTNPTGNVITDEELLKLDALANQHGIPLVIDNAYGVPFPGIIFSEARPLWNPNIVLCMSLSKLGLPGSRCGIIIANEKIITAITNMNGIISLAPGGIGPAMMCEMIKRNDLLRLSETVIKPFYYQRVQETIAIIRRYLPEDRCLIHKPEGAIFLWLWFKDLPITTEQLYQRLKARGVLMVPGHNFFPGLDKPWPHTHQCMRMNYVPEPEKIEAGVKILAEEIERAWAESH", "soluble on expression in E. coli": "soluble"}, {"sequence": "MSLSRNSDLHMHSTASDGGYSPTELMEKCHQANLKFVALTDHDTVNGIEEAKQTAHRLGFILIPGIELSTKASGQSVHMLGYGIDWKNDTLKRRLDRQQDIRKQRLEQILLKLKAAGVPLEQDAVLRYADGGAIGRPHVAKALMDKGYVRSVQEAFEHYLAEGRPCYVKRQEYISVEQAIAWIHQAGGVAIVAHPGYYDLDDQLIGWVREYGLDGIEVYHRDHSREVVAHYEQLCKRMEAETGRRLLRTGGSDFHHESYGRTAAPLGTTRIPDQLTYELLHDLERKKTRAEGHHHHHH", "soluble on expression in E. coli": "soluble"}, {"sequence": "MSLKNTPPGFPSHSSATLAFALAIAAGGAQAAGFVEDAKGTLTLRNFFINRDFKGDNATRSKAEEWTQNFLLDLKSGYTEGPLGLGLDVLGLYSVKLDGGKGTGGTQLLPLDHDGKPADRFGRLAVAGKLKLSETELRAGEWALVLPILRSDDGRSLPQTFRGSMLTSKEIENLTLYAGHITGNSPRDDGSMEEMTLFGTSPYTSDRTSDDFDFGGLEYSFNGKRTLVGVWYARLKDIYKQRYIQLQHSQPLGGDWTLGANIGYFDGEDDGEALEGHLDNKALSGLFSLRTGAHTFYLGLQRISGDSKWLRVNGTSGGTLANDSYNSSYDNARERSWQLRYDYNFAALGMPGLTFMTRYISGKNIHVGAVDDGEEWGRESEVAYVVQSGAAKNLTLRWRNTTMRRDYGSDNQFNEQRLIVQYPLSLFEGHHHHHH", "soluble on expression in E. coli": "soluble"}, {"sequence": "MNALKQAVRTYARCHANRDGLAVTTVPGLRTMCVEDPAGDLHSVYRPLVCFVLQGAKRMIVGSEERVFYGGQSVIVAADMPVVGRIVEASSGAPYLAIAVELEMALLREVAAQIGDTCSLRSSGMQTLFAEDTEGAMLDCASRLMHLLDRPDAVPILRPGIMRELHYWLLSGPHGPALRTLADPDSYAGRLAAAIAILRTEYRSRVPVERLAAAAAMSLTAFHKHFKMMTSLTPGQYQKRLRLIEARRLMLDQGFSASNAAFEVGYESVSQFTREYGRLFNMPPKQDALRARAISSIFKHSQADALGAELH", "soluble on expression in E. coli": "not soluble"}, {"sequence": "MSLDRPRCCLRGKECCINRFQQVESRWGYSGTSDRIRFTVNRRISIVGFGLYGSIHGPTDYQVNMQIIEYEKKQTLGQNDTGFSCDGTANTFRVMFKEPIEILPNVCYTACATLKGPDSHYGTKGLKKVVHETPAASKTVFFFFSSPGNNNGTSIEDGQIPEIIFYTEGHHHHHH", "soluble on expression in E. coli": "soluble"}, {"sequence": "MTVPTYDKFIEPVLRYLATKPEGAAARDVHEAAADALGLDDSQRAKVITSGQLVYKNRAGWAHDRLKRAGLSQSLSRGKWCLTPAGFDWVASHPQPMTEQETNHLAFAFVNVKLKSRPDAVDLDPKADSPDHEELAKSSPDDRLDQALKELRDAVADEVLENLLQVSPSRFEVIVLDVLHRLGYGGHRDDLQRVGGTGDGGIDGVISLDKLGLEKVYVQAKRWQNTVGRPELQAFYGALAGQKAKRGVFITTSGFTSQARDFAQSVEGMVLVDGERLVHLMIENEVGVSSRLLKVPKLDMDYFE", "soluble on expression in E. coli": "soluble"}, {"sequence": "MTRTSKWTVHEAKSNPKYFTHNGNFGESPNHVKRGGYGKGNWGKPGDEINDLIDSGEIKTVFNKTRRGSNSQNNERRLSDLQQYHI", "soluble on expression in E. coli": "soluble"}, {"sequence": "MATAVELALLKQPYFDLNALCKTVFVTYKAGPGLKKIVTVQAQYVDICNKPNVRGTVVSLPGSPGSHNDIKYMRDSFEKHNIRLICVNWPGSEFVTGGMNDTYTNAERNSYAKALMEKLELKKVEKLILLGHSRGGESALQLACTLSDDRSWPLIGAVMLNSPGFVVHRGISIRMGTINTVSFLVKLRWKIVDCILFPVLDWFYNDFVGLRVSDGKVCAAAMLPMQTFAFEEQRASIDEMKKKPWIRMFYAYGSKDFLVDESDSEELAMHFGGDHYIIHSKKESEETIPKIWNSYERGQSYVTANFTEEGHYLHKTYPEFLIQIFGGIFDVKTEKS", "soluble on expression in E. coli": "not soluble"}, {"sequence": "AHHHHHHHRSDAAVIVVGAGPAGMMLAGELRLAGVEVVVLERLVERTGESRGLGFTARTMEVFDQRGILPRFGEVETSTQGHFGGLPIDFGVLEGAWQAAKTVPQSVTETHLEQWATGLGADIRRGHEVLSLTDDGAGVTVEVRGPEGKHTLRAAYLVGCDGGRSSVRKAAGFDFPGTAATMEMYLADIKGVELQPRMIGETLPGGMVMVGPLPGGITRIIVCERGTPPQRRETPPSWHEVADAWKRLTGDDIAHAEPVWVSAFGNATRQVTEYRRGRVILAGDSAHIHLPAGGQGMNTSIQDAVNLGWKLGAVVNGTATEELLDSYHSERHAVGKRLLMNTQAQGLLFLSGPEVQPLRDVLTELIQYGEVARHLAGMVSGLEITYDVGTGSHPLLGKRMPALELTTATRETSSTELLHTARGVLLDLADNPRLRARAAAWSDRVDIVTAVPGEVSATSGLRDTTAVLIRPDGHVAWAAPGSHHDLPMALERWFGAPLTG", "soluble on expression in E. coli": "soluble"}, {"sequence": "MQIDVNVEVKEKPTGAVMFGAGYSNMEGLILSGSVAQDNIFGTGKFVNLMVNTGSVNKTYSLSYTDPYFTKDGVTAGLDLYKRVLNTRTLSSVMNFNTDTLGAGLRFGIPINENDSIMGGLGAEQTTIDLGPDSPQRNIDFVNKFGRTTINIPATLSWRRDGRDSAIWTTSGTTQRVFAEVGLPGGDLTYYKLSYDLRWYFPITEIFTLMLNGELGYGDGYSGKELPFFKNFFAGGNTSVRGYNISSLGPRDATNRTLGGNKRAVGNIEVLFPMPGMRNDRTVRLSAFLDGGTVWGPGGVRPDQEGLRYSAGIAVTWISPMGPLKISVAQPLNSQPGDNIQRFQFQFGQQFLEHHHHHH", "soluble on expression in E. coli": "not soluble"}, {"sequence": "MTVLLSKRAINILLMLLDLEGSITTQELAESFTVSVRTIKYDLEDIRAWFEQHDETLYSKRNKGIWLDLPDSKRLLLKNEIIDVDRFETYPDQKRRVNVLIFQLLSVKGYLTAQQLADELLVSRNTIVSDLEQVERLLQAYDLTLIRQARQGFTISGEESNVRLLMEFITQKELTEYDIYQIMNYVTKTKGAEKIPKIKFGSGTLFQGCYRSALKKMRNLINPLDQNQFDYAEILSITLRVAIAAARMQMAHTIGTYRVLSQKTRFEQRNEVPLLLLQEVFERYDLPLLADEYFYIYSDLFGTHQRQDMVQLTKQVIESVSKELNYPFVNDRQLFTNLFAHLSLRFTKKHLFINEYNPFSEEIKGKHPALFLAIQSACKQLIQRSVLLVNDSFCAYIALHFLAAQERQQQEAKVVRIVYVCSTGLGVTSLIEQKILEEVPNVELAGFASVLNATEVIQAEKPDLVLSIFPIEEMTYPFIKVSPLLTDTDLSLIREEVDKILLGKRQGKGTARSTKSDVIEKNERIQSQDLLVKAYIIYEELKRMFQTKLLSEYQEAFLLHVLLMTHRITFNKQYEEIPCNREVSHERQEEIRQIECLFAKNELPVNHAEISALLNYLEQPKEEEDGTSNGSTGDHSTKC", "soluble on expression in E. coli": "not soluble"}]}]}
